From patent US20260167714A1 (COHERUS BIOSCIENCES, published 2026)
One block for each binder: values may come before it.

Assays:
[1] = target: T1, human ILT4 expressed on cells (human, UniProt Q8N423 22-597); experiment: cell-based or functional assay
[2] = target: T2, recombinant human ILT4 (LILRB2) (human, UniProt Q8N423 22-460); experiment: SPR, high resolution kinetics, triplicate
T2 construct: Bought protein (Acro Biosystems or R&D Systems); also called ILTR4

[3] = target: T2, recombinant human ILT4 (LILRB2); experiment: SPR, high resolution kinetics, triplicate; 95% CI in parentheses
[4] = target: T1, human ILT4 expressed on cells; experiment: flow cytometry on ILT4-CHO cells, unlabelled mAb titrated; competitor AF647-Hz45.01-LALA
Procedure: (§1) Competition binding assays were performed. […] Binding activities were measured by flow cytometry.
Anti-human ILT4 mAbs at various concentrations (0-15 μg/ml) were incubated with ILT4-CHO cells. Cells were washed and stained with AF647-Hz45.01-LALA. Cells were analyzed by flow cytometry.

[5] = target: T1, human ILT4 expressed on cells; experiment: flow cytometry on ILT4-CHO cells, unlabelled mAb titrated; competitor AF647-Hz156.03-LALA
Procedure: as §1
Anti-human ILT4 mAbs at various concentrations (0-15 μg/ml) were incubated with ILT4-CHO cells. Cells were washed and stained with AF647-Hz156.03-LALA. Cells were analyzed by flow cytometry.

[6] = target: T1, human ILT4 expressed on cells; experiment: flow cytometry, blockade of PE-HLA-G tetramer (5 µg/ml) binding to CHO-S/ILT4 cells, experiment 1
[7] = target: T1, human ILT4 expressed on cells; experiment: as above; remark: listed apart in the source
[8] = target: T1, human ILT4 expressed on cells; experiment: flow cytometry, blockade of PE-HLA-G tetramer (5 µg/ml) binding to CHO-S/ILT4 cells, experiment 2
Procedure: (§2) In the second blocking experiment, the primary antibody dilutions were made by diluting antibody to 15 μg/ml in FACS buffer. Three independent sets of eleven 2.5-fold serial dilutions were then made in FACS buffer from 15 μg/ml to 0.002 μg/ml. Each dilution set was handled independently, and 50 μl from each was added to cells in duplicate. Control wells received FACS buffer with no antibody. Wells were mixed and incubated for 30 minutes at 4 degrees C. Cells were washed twice in FACS buffer.
(§3) In both blocking experiments, phycoerythrin (PE)-conjugated HLA-G tetramer was diluted in FACS buffer to 5 μg/ml and 100 μl per well was added to cells. Cells were incubated at 4 degrees C. for 30 minutes, washed twice in FACS buffer, and resuspended in 250 μl FACS buffer with 0.1 μg/ml propidium iodide.
(§4) Cells were acquired on an Attune flow cytometer, with 5000 propidium iodide-negative cells collected per sample, and MFI was recorded. Relative blocking activity was calculated with the following formula: 100−(Sample MFI−Background MFI)/(Top MFI−Background MFI)*100. Prism software (Graphpad) was used to plot MFI and relative blocking activity for each sample. The blocking potency for each antibody, represented as IC₅₀, was calculated with Prism software.

[9] = target: T1, human ILT4 expressed on cells; experiment: flow cytometry blocking assay: ILT4-expressing CHO cells preincubated with antibody, then PE-HLA-G; HLA-G binding MFI falls from about 105000 (no antibody) to near 0
Procedure: as §2, §3, §4

[10] = target: T2, recombinant human ILT4 (LILRB2); experiment: SPR, Biacore T200, medium resolution; koff held at its limit of 4.27e-5 s^-1
Procedure: (§5) Label-free SPR analysis on a Biacore T200 instrument was utilized to measure antibody affinity to ILT4. CM4 sensor chips from Cytiva Inc. were utilized for all medium resolution analyses. Either anti-mouse Fc specific or anti-human Fc specific capture surfaces were prepared using standard amine coupling chemistry. Mouse, Chimera or Humanized mAbs were captured to their respective surfaces and ILT4 was injected across the surfaces from 101 nM to 0.79 nM in a 2-fold serial dilution series at a flow rate of 100 μL/min. The association phase was followed for 90 sec. while the dissociation phase was followed for 1200 sec. due to the medium resolution analysis implemented here. The sensorgrams were double-referenced and fit globally to a 1:1 interaction model with a term included for mass transport, and the equilibrium dissociation constant was calculated as KD=koff/kₒₙ. […] All kinetic experiments were performed at 25° C. in a buffer consisting of Hepes-buffered saline, pH 7.4, with 0.05% polysorbate 20 (HBS-P+) and 100 μg/ml Bovine Serum Albumin (BSA).

[11] = target: T2, recombinant human ILT4 (LILRB2); experiment: SPR, Biacore T200, mAb captured on anti-Fc, ILT4 injected, medium resolution, 25 C
Procedure: as §5

[12] = target: T2, recombinant human ILT4 (LILRB2); experiment: SPR, Biacore T200, medium resolution; koff held at its limit of 4.27e-5 s^-1; koff held at the limit, 1200 s of dissociation
Procedure: as §5

[13] = target: T1, human ILT4 expressed on cells; experiment: cell-based or functional assay; remark: listed apart in the source
[14] = target: T1, human ILT4 expressed on cells; experiment: cell-based or functional assay; remark: listed apart in the source
[15] = target: T1, human ILT4 expressed on cells; experiment: flow cytometry, blockade of PE-HLA-G tetramer binding to ILT4-CHO cells, Experiment 1
[16] = target: T1, human ILT4 expressed on cells; experiment: flow cytometry, blockade of PE-HLA-G tetramer binding to ILT4-CHO cells, Experiment 2
[17] = target: T1, human ILT4 expressed on cells; experiment: flow cytometry, blockade of PE-HLA-G tetramer binding to ILT4-CHO cells, Experiment 3
[18] = target: T1, human ILT4 expressed on cells; experiment: flow cytometry, blockade of PE-HLA-A tetramer (5 ug/ml) binding to ILT4-CHO cells, Experiment 1 (table title prints HLA-G)
[19] = target: T1, human ILT4 expressed on cells; experiment: flow cytometry, blockade of PE-HLA-A tetramer (5 ug/ml) binding to ILT4-CHO cells, Experiment 2 (table title prints HLA-G)
[20] = target: T1, human ILT4 expressed on cells; experiment: flow cytometry, blockade of PE-HLA-A tetramer (5 ug/ml) binding to ILT4-CHO cells, Experiment 3 (table title prints HLA-G)

T2 sequence (Q8N423 other isoform, or with tags, fused parts or gaps limits assumed): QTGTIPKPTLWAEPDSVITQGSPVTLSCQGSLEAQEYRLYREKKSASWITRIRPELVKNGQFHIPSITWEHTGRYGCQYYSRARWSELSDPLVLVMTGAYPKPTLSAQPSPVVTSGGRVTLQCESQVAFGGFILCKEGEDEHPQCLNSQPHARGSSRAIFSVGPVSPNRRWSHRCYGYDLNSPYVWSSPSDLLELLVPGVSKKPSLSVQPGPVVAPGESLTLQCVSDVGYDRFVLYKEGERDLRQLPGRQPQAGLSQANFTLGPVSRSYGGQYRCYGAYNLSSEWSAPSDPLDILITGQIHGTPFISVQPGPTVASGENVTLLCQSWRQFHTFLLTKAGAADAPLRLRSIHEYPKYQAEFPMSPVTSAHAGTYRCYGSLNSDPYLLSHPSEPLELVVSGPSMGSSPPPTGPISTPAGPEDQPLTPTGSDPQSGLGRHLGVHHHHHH
T1 sequence (Q8N423 22-597): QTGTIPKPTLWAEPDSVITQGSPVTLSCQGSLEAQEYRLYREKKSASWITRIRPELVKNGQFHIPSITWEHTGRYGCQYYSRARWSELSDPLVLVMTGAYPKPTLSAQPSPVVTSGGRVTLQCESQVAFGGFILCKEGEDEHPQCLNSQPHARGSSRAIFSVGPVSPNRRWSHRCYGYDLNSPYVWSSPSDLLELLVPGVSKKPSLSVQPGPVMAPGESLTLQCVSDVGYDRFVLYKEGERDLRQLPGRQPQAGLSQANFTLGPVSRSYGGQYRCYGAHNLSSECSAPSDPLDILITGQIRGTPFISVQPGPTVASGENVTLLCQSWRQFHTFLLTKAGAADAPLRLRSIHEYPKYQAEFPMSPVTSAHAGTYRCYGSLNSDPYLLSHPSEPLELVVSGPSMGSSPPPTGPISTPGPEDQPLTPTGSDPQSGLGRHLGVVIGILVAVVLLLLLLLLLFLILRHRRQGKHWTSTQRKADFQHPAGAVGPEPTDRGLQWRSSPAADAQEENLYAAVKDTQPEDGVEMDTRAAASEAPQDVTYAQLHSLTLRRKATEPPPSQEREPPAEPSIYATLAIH

IL-6 secretion, fold over control, Donor A [1]: 3 fold
IL-6 secretion, fold over control, Donor B [1]: 2 fold
TNF-α secretion, fold over negative control [1]: 8 fold
Kd [2]: 0.85 nM
koff [2]: 0.00433 s⁻¹
kon [3]: 5.11e+06 M⁻¹ s⁻¹
IC50 [4]: 0.182 µg/mL
IC50 [5]: 0.0796 µg/mL
fold decrease of PE-HLA-G MFI [6]: ≤ 22 fold
IC50 [7]: 0.13 µg/mL
IC50 [8]: 0.216 µg/mL
IC50 [9]: 0.233 µg/mL
B1: J19h1 (antibody, V domains shown)
VH: QITLKESGPTLVKPTQTLTLTCTFSGFSLNTYAMGVSWIRQPPGKALEWLASIWWNGNKYNNPSLKSRLTVTKDTSKNQVVLTMTNMDPVDTATYYCAHSRIIRFTDYVMDAWGQGTLVTVSS
VL: DIQMTQSPSSLSTSVGDRVTITCRASEDIYNDLAWYQQKPGKAPKLLIYNANSLHTGVASRFSGSGSGTDFTFTISSLQPEDVATYFCQQYYDYPLTFGQGTKLEIKR

IL-6 secretion by LPS-stimulated M2 macrophages (MSD), fold over control [1]: 2 fold
Kd [10]: ≤ 0.16 nM
kon [11]: 269000 M⁻¹ s⁻¹
IC50 [8]: 0.113 µg/mL
koff [12]: ≤ 4.27e-05 s⁻¹
IC50 [9]: 0.088 µg/mL
B2: L156S3 (antibody, IgG2a, V domains shown)
VH: QVQLKQSGAELVRPGASVKLSCRASGYTFTDYYMNWVKQRPGQGLEWIARIYPGVYRTHYNEKFKDKATLTAEKSSSTAYMELSSLTSEDSAVYFCARSGYYGGTYEEDAMDYWGQGTSVTVSS
VL: DIQMTQSPASLSVSVGETVTITCRASENIYSNLAWYQQKQGKSPQLLVYAATSLADGVPSRFRGSGSGTQYSLKISSLQSEDFGNYYCQNFWDTPYTFGGGTKLEIK
notes: also called mouse anti-human ILT4 antibody L156S3

EC50 value of TNFa production, donor 4 [13]: 0.00877 µg/mL
EC50 value of TNFa production, donor 5 [13]: 0.0235 µg/mL
EC50 value of IL-6 production, donor 4 [14]: 0.00374 µg/mL
EC50 value of IL-6 production, donor 5 [14]: 0.0139 µg/mL
Kd [2]: 5.5 nM
koff [2]: 0.00895 s⁻¹
kon [3]: 1.62e+06 M⁻¹ s⁻¹
IC50 [15]: 0.194 µg/mL
IC50 [16]: 0.162 µg/mL
IC50 [17]: 0.151 µg/mL
IC50 [4]: 0.171 µg/mL
IC50 [5]: 0.336 µg/mL
fold decrease of PE-HLA-G MFI [6]: ≤ 30 fold
IC50 [7]: 0.13 µg/mL
IC50 [8]: 0.075 µg/mL
IC50 [18]: 0.102 µg/mL
IC50 [19]: 0.107 µg/mL
IC50 [20]: 0.0956 µg/mL
IC50 [9]: 0.096 µg/mL
B3: 1E1 (antibody, V domains shown)
VH: QVQLQQWGAGLLKPSETLSLTCAVYGGSFSGYYWSWIRQPPGKGLEWIGEINHSGSTNYNPSLKSRVTISVDTSKNQFSLKLSSVTAADTAVYYCARLPTRWVTTRYFDLWGRGTLVTVSS
VL: QSVLTQPPSVSGAPGQRVTISCTGSSSNIGAGYDVHWYQQLPGTAPKLLIYGNSNRPSGVPDRFSVSKSGASASLAITGLQAEDEADYYCQSFDNSLSAYVFGGGTQLTVL
